Source: paper PMC11497405

Key:
Experiment in all cases: SEC; size exclusion chromatography coupled online to ICP-sfMS (HPLC-ICP-MS) with diode array detection, metal-free HPLC system; apparent MW from a calibration curve; purified MTs with their bound metals
[1] = target: native (non-tagged) Brassica napus metallothionein BnMT2 (Brassica napus)
[2] = target: native (non-tagged) Brassica napus metallothionein BnMT3a (Brassica napus)
[3] = target: native (non-tagged) Brassica napus metallothionein BnMT3b (Brassica napus)

“native (non-tagged) Brassica napus metallothionein BnMT2 (natural protein)” gave a stoichiometry N [1] of 2.

In the case of “native (non-tagged) Brassica napus metallothionein BnMT3a (natural protein)”, the stoichiometry N [2] was 2.

In the case of “native (non-tagged) Brassica napus metallothionein BnMT3b (natural protein)”, the stoichiometry N [3] was 2.
